{"source": "patent US10752675B2", "about": "“Compounds for treating the remyelination blockade in diseases associated with the expression of HERV-W envelope protein” (GENEURO S.A., priority 2012, dated 2020)", "molecules": {"B1": {"name": "GNbAC1: recombinant humanized anti-Env IgG4 monoclonal antibody comprising the CDRs of SEQ ID No. 1 to 6 (antibody, chains of the INN, looked up, V domains shown)", "VH": "QVQLVQSGAEVKKPGSSVKVSCKASGYTFTDYEMHWVRQAPGQGLEWIGAVAPETGGTAYNQKFKGRATITADKSTSTAYMELSSLRSEDTAVYYCTSTVVPFAYWGQGTLVTVSS", "VL": "QIQLTQSPSSLSASVGDRVTITCSASSSVSYMYWYQQKPGKAPKAWIYRTSNLASGVPSRFSGSGSGTDYTLTISSLQPEDFATYYCQQYQSLPLTFGGGTKVEIK"}}, "system": "MSRV-Env induced EAE in C57BL/6 mice", "assay": "Rotarod test, Example 3.A (MSRV-Env induced EAE)", "type": "in vivo", "conditions": "Example 3.A doses", "description": "9 and 8 days before immunization. Transfer of mice, in their home cages, from the holding room to the experimental room. Mice are habituated to the experimental room for 15 min. During the training period, each mouse was placed on the rotarod at a constant speed (4 rpm) if one mouse was falling, she was back on rotarod, when mice were comfortable on the rotarod, mice were running during 120 sec. All mice were returned to their cage, the speed was increased to 13 rpm and mice were again put on the rotarod for 120 sec. All mice were returned to their cage, the speed was increased to 19 rpm and mice were again put on the rotarod for 120 sec. The experimental-room environment were kept constant between test sessions with respect to temperature, and light intensity.\n1 day before each immunization, mice were transferred in their home cages, from the holding room to the experimental room. Mice were habituated to the experimental room for 15 min. Mice then received two trials at 10 increasing speed levels, ranging from 7 to 40 rpm. Individual delays before falling off the rotarod (for the two trials at each speed level) was recorded until 60 sec. Thus, training and performance on the Rotarod system were determined for each animal.\nThe ROTAROD test results are expressed as kinetics of the mean of individual scores for each group with SEM indicated by bars, for each test day and for each test speed within the discriminating range for neuromotor impairment in present conditions (16 to 29 rpm).\nThey are calculated for each individual mouse, for each test day and for each speed value, as the relative gain or loss of time on Rotarod (before falling), compared to the first test day at the same speed (D-7, before starting the disease induction in relevant groups). The value is calculated as “Time on Rotarod at dayX”−“Time at Day-7 for the same mouse at the same speed”. Figures illustrate the kinetics for the different groups on the whole study period, for representative discriminative speed values when validated to differentiate ill from healthy animals in our conditions (e.g., too high or too low speed values either made healthy ones fall immediately or ill ones capable to sustain a slow movement).\nAll groups of 6 (six) mice have been first injected s.c. in the neck on day 0 then in the dorsal flanks on day 7 and 14; with 200 μg of MOG/mouse+60 μg of MSRV-Env+IFA.\nFor Groups G to H, the treatments with GNbAc1, L-NAME, SMT and DMF alone or together with GNbAc1 with the doses indicated below, have been initiated on day 12 post immunization when the progression of EAE clinical symptoms was already observed. GNbAc1 humanized antibody was administered once, but L-Name or SMT was administered every 4 days until termination of the study on day 29. Regarding Groups E and H, attributed for the treatment with DMF, we have previously determined the volume of daily water consumption by each mouse and it has been determined that (in our condition), each mouse consumed around 3.5 ml drinking water per day. Thus, on the basis of this measurement, a dose of 1 mg DMF+0.08% Methocel per mouse were added to 3.5 ml drinking water daily.", "data": [{"molecule": "B1", "values": [{"measurement": "Rotarod scores in all conditions (16 to 29 rpm tests)", "setting": "compared to untreated group A / to GNbAc1 alone", "result": "greatly stabilized and/or improved scores"}, {"measurement": "Time on Rotarod at 23 rpm relative to Day -7", "setting": "end of study period", "result": "recovered a score similar to control mice without disease induction"}, {"measurement": "Time on Rotarod at 26 rpm relative to Day -7", "setting": "end of study period", "result": "recovered a score similar to D,G,C,E and H groups"}, {"measurement": "Time on Rotarod at 29 rpm relative to Day -7", "setting": "end of study period", "result": "recovered a score similar to control mice without disease induction"}]}]}
